Data on seven molecules can be found in paper PMC4527729, “The Inner Membrane Protein PilG Interacts with DNA and the Secretin PilQ in Transformation”.

In data set [1] the target is PilG FL (Neisseria meningitidis MC58) (UniProt Q7DDR1). Nature of the data set: EMSA. The settings on record: Optimized EMSA: 50 mM HEPES pH 7.5, 100 mM NaCl, 5 mM MgCl2, 1 mM DTT, 10% glycerol, 0.05% DDM, on ice 15 min, 0.45 nM DNA; first EMSA: 25 mM NaH2PO4 pH 8.0 …. (In general: A gel shift assay detects complexes by their altered migration in electrophoresis.)
The target in data set [2] is T1, PilG1-178 (Neisseria meningitidis MC58, UniProt Q7DDR1 1-178). Nature of the data set: EMSA; 5 mM MgCl2; Optimized EMSA: 50 mM HEPES pH 7.5, 100 mM NaCl, 5 mM MgCl2, 1 mM DTT, 10% glycerol, 0.05% DDM, on ice 15 min, 0.45 nM DNA; first EMSA: 25 mM NaH2PO4 pH 8.0, 150 mM NaCl, 1 mM DTT, 10% glycerol, 0.05% DDM, on ice. As to conditions: protein: recombinant; tags: C-terminal 6xHis; label: 32P end label; blunt.

The target in data set [3] is T1, PilG1-178. Nature of the data set: South-western; Optimized EMSA: 50 mM HEPES pH 7.5, 100 mM NaCl, 5 mM MgCl2, 1 mM DTT, 10% glycerol, 0.05% DDM, on ice 15 min, 0.45 nM DNA; first EMSA: 25 mM NaH2PO4 pH 8.0, 150 mM NaCl, 1 mM DTT, 10% glycerol, 0.05% DDM, on ice. As to conditions: protein: recombinant, tags: C-terminal 6xHis, label: 32P end label.
A further data set has as its target PilG257-410 (Neisseria meningitidis MC58, UniProt Q7DDR1 257-410). Described as above. The settings on record: protein: recombinant, tags: C-terminal 6xHis, label: 32P end label.
For a further data set, the target named is PilG30-80 (Neisseria meningitidis MC58, UniProt Q7DDR1 30-80). The data set is described as above. The settings on record: protein: recombinant, tags: C-terminal 6xHis, label: 32P end label.
For a further data set, the target named is PilG166-410 (Neisseria meningitidis MC58, UniProt Q7DDR1 166-410). The data set is described as above. As to conditions: protein: recombinant, tags: C-terminal 6xHis, label: 32P end label.
A further data set addresses PilG1-256 (Neisseria meningitidis MC58, UniProt Q7DDR1 1-256). The description is as above. As to conditions: protein: recombinant, tags: C-terminal 6xHis, label: 32P end label.
The target in the next data set is PilG1-140 (Neisseria meningitidis MC58, UniProt Q7DDR1 1-140). The data set is described as above. The settings on record: protein: recombinant, tags: C-terminal 6xHis, label: 32P end label.
Another data set concerns the target PilG1-80 (Neisseria meningitidis MC58, UniProt Q7DDR1 1-80). The data set is described as above. The settings on record: protein: recombinant, tags: C-terminal 6xHis, label: 32P end label.
A further data set concerns the target PilG1-60 (Neisseria meningitidis MC58, UniProt Q7DDR1 1-60). The data set is described as above. The settings on record: protein: recombinant, tags: C-terminal 6xHis, label: 32P end label.
In data set [4] the target is T2, PilG FL (Neisseria meningitidis MC58, UniProt Q7DDR1 1-410). Described as above. As to conditions: protein: recombinant, tags: C-terminal 6xHis, label: 32P end label.
The target in another data set is PilG Q55A (Neisseria meningitidis MC58, UniProt Q7DDR1 1-410, Q55A). Nature of the data set: South-western; same as FL; Optimized EMSA: 50 mM HEPES pH 7.5, 100 mM NaCl, 5 mM MgCl2, 1 mM DTT, 10% glycerol, 0.05% DDM, on ice 15 min, 0.45 nM DNA; first EMSA: 25 mM NaH2PO4 pH 8.0, 150 mM NaCl, 1 mM DTT, 10% glycerol, 0.05% DDM, on ice. As to conditions: protein: recombinant; tags: C-terminal 6xHis; label: 32P end label.

In a further data set the target is PilG SS62-63AA (Neisseria meningitidis MC58, UniProt Q7DDR1 1-410, S62A;S63A). The data set is described as above. The settings on record: protein: recombinant; tags: C-terminal 6xHis; label: 32P end label.
Another data set has as its target PilG EEE39-41AAA (Neisseria meningitidis MC58, UniProt Q7DDR1 1-410, E39A;E40A;E41A). Nature of the data set: South-western; increased vs FL per text; Optimized EMSA: 50 mM HEPES pH 7.5, 100 mM NaCl, 5 mM MgCl2, 1 mM DTT, 10% glycerol, 0.05% DDM, on ice 15 min, 0.45 nM DNA; first EMSA: 25 mM NaH2PO4 pH 8.0, 150 mM NaCl, 1 mM DTT, 10% glycerol, 0.05% DDM, on ice. As to conditions: protein: recombinant; tags: C-terminal 6xHis; label: 32P end label.

For data set [5], the target named is T2, PilG FL. Nature of the data set: EMSA; optimized EMSA; R2 0.91?; Optimized EMSA: 50 mM HEPES pH 7.5, 100 mM NaCl, 5 mM MgCl2, 1 mM DTT, 10% glycerol, 0.05% DDM, on ice 15 min, 0.45 nM DNA; first EMSA: 25 mM NaH2PO4 pH 8.0, 150 mM NaCl, 1 mM DTT, 10% glycerol, 0.05% DDM, on ice. The settings on record: protein: recombinant; tags: C-terminal 6xHis; label: 32P end label.

For another data set, the target named is PilG RKK43-45AAA (Neisseria meningitidis MC58, UniProt Q7DDR1 1-410, R43A;K44A;K45A). Nature of the data set: EMSA; extrapolated; about 50% bound at 5 uM per text; Optimized EMSA: 50 mM HEPES pH 7.5, 100 mM NaCl, 5 mM MgCl2, 1 mM DTT, 10% glycerol, 0.05% DDM, on ice 15 min, 0.45 nM DNA; first EMSA: 25 mM NaH2PO4 pH 8.0, 150 mM NaCl, 1 mM DTT, 10% glycerol, 0.05% DDM, on ice. As to conditions: protein: recombinant; tags: C-terminal 6xHis; label: 32P end label.

Take 52 bp dsDNA, S3 Fig: the Kd (as a rule, a measure of binding affinity in units of concentration) in data set [1] worked out at 300 nM.

B1: HH10HH11 (dsDNA DUS-) (dsDNA)
DNA 1: AACAACAACAAAAGGCCTGTCATCCAACTTCCGGACAGTAAACAACAACAAC
DNA 2: GTTGTTGTTGTTTACTGTCCGGAAGTTGGATGACAGGCCTTTTGTTGTTGTT
With B1, the “apparent K (half saturation)” value with PilG1-178 [2] was found to be 269 nM.

B2: T1 (ssDNA)
DNA: CAACAACAACAACAGCCGTCTGAACCAAATTCAGACGGCAACAACAACAACA
Regarding B2, the binding result with PilG1-178 [3] was “binds”; with PilG257-410 it was “no binding”; with PilG30-80 it was “no binding”; with PilG166-410 it was “no binding”; in the data set with PilG1-256 it was “binds”; with PilG1-140, “binds”. Moreover, the binding result with PilG1-80 is “binds”; with PilG1-60, “no binding”; with PilG FL [4], “binds”; with PilG Q55A, “binds”; with PilG SS62-63AA it was “binds”; in the data set with PilG EEE39-41AAA, “binds”.

B3: T1T2 (dsDNA)
DNA 1: CAACAACAACAACAGCCGTCTGAACCAAATTCAGACGGCAACAACAACAACA
DNA 2: TGTTGTTGTTGTTGCCGTCTGAATTTGGTTCAGACGGCTGTTGTTGTTGTTG
Consider B3, for which the binding result is “binds” with PilG1-178 [3] (blunt); “no binding” with PilG257-410 (blunt); “no binding” in the data set with PilG30-80 (blunt); “no binding” with PilG166-410 (blunt); “binds” with PilG1-256 (blunt); “binds” with PilG1-140 (blunt). For the same molecule, the binding result was “binds” with PilG1-80 (blunt), “no binding” with PilG1-60 (blunt) and “binds” in the data set with PilG FL [4] (blunt).

B4: HH8 (ssDNA)
DNA: GTTGTTGTTGTTTTCAGACGGCATGTTGGTTCAGACGGCATTTGTTGTTGTT
Consider B4, for which the binding result with PilG257-410 was “no binding”; with PilG30-80, “no binding”; with PilG166-410 it was “no binding”; with PilG1-60, “no binding”; in the data set with PilG EEE39-41AAA it was “binds”. Also, the “apparent K (half saturation)” value with PilG FL [5] was 1160 nM; in the data set with PilG RKK43-45AAA, roughly 15.7 mM.

B5: T3 (ssDNA)
DNA: CAACAACAACAACAGGCCTGTCATCCAAAATGACAGGCCAACAACAACAACA
Consider B5, for which the binding result in the data set with PilG1-178 [3] is listed as “binds”; in the data set with PilG257-410, “no binding”; with PilG30-80, “no binding”; with PilG166-410, “no binding”; in the data set with PilG1-256 it was “binds”; with PilG1-140, “binds”. For the same molecule, the binding result with PilG1-80 was “binds”; with PilG1-60, “no binding”; in the data set with PilG FL [4], “binds”.

B6: T3T4 (dsDNA)
DNA 1: CAACAACAACAACAGGCCTGTCATCCAAAATGACAGGCCAACAACAACAACA
DNA 2: TGTTGTTGTTGTTGGCCTGTCATTTTGGATGACAGGCCTGTTGTTGTTGTTG
B6: the binding result in the data set with PilG1-178 [3] (blunt) is “binds”; with PilG257-410 (blunt), “no binding”; with PilG30-80 (blunt), “no binding”; in the data set with PilG166-410 (blunt), “no binding”; in the data set with PilG1-256 (blunt), “binds”; in the data set with PilG1-140 (blunt), “binds”. Also, the results for the binding result with PilG1-80 (blunt), in the data set with PilG1-60 (blunt) and with PilG FL [4] (blunt) were “binds”, “no binding” and “binds”, respectively.
